Results taken from patent publication US20240279331A1 (University of California, published 2024).
Where a chain is given by its changes, count along the chain named.

T1: NCR3 on cell (on-cell binding in the affinity-maturation table) (human, UniProt O14931 19-201, limits assumed)
T1 construct: On cell
T1 sequence (looked up): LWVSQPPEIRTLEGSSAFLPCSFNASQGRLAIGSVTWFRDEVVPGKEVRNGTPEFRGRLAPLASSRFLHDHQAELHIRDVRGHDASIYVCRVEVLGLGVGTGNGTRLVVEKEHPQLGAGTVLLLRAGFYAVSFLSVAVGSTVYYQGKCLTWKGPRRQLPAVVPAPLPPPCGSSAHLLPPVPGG

T2: NCR3 (antigen of the ELISA in the affinity-maturation table) (human, UniProt O14931 19-135, limits assumed)
T2 construct: also called Natural Cytotoxicity Triggering Receptor 3
T2 sequence (looked up): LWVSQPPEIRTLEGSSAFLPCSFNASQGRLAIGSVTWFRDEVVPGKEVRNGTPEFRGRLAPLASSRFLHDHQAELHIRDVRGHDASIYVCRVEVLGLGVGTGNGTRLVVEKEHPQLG

T3: TNFSF4 extracellular domain fused to a generic transmembrane domain, on tetracycline-inducible FlpIn cells (UniProt P23510 51-183)
T3 construct: extracellular domain; also called OX40L; not shown: transmembrane domain of platelet-derived growth factor (so in the source) with a HA tag
T3 sequence (looked up): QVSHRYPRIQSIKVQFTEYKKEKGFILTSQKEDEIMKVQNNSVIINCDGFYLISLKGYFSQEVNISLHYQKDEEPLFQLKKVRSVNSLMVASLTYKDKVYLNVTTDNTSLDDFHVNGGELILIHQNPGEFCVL

T4: CD244 extracellular domain fused to a generic transmembrane domain, on tetracycline-inducible FlpIn cells (UniProt Q9BZW8 22-229)
T4 construct: extracellular domain; not shown: transmembrane domain of platelet-derived growth factor (so in the source) with a HA tag
T4 sequence (looked up): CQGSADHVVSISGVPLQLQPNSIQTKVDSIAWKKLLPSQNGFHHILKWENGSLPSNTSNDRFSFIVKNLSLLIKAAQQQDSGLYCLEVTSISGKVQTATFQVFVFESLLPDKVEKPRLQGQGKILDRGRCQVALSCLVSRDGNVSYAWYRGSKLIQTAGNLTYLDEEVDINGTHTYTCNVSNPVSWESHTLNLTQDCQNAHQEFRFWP

T5: NCR3 extracellular domain fused to a generic transmembrane domain, on tetracycline-inducible FlpIn cells (human, UniProt O14931 19-135)
T5 construct: extracellular domain; HEK293 FlpIn cells, expression on tetracycline addition; also called NCR3 over expression cell line; not shown: transmembrane domain of platelet-derived growth factor (so in the source) with a HA tag
T5 sequence (looked up): T2 sequence (looked up)

T6: NCR3 extracellular domain TEV-cleavable Fc-fusion, biotinylated (human, UniProt O14931 19-135, biotinylated (site not stated))
T6 construct: extracellular domain; Antigen of the phage selections and Fab-phage ELISAs; not shown: TEV cleavage site and Fc domain
T6 sequence (looked up): T2 sequence (looked up)

T7: NCR3 as expressed on NK cells (human, UniProt O14931 19-201)
T7 construct: whole, on cells; Primary human peripheral blood NK cells; NK92MI cells in the bispecific cytotoxicity assay; also called peripheral blood NK cells; NCR3+ NK92MI cells
T7 sequence (looked up): T1 sequence (looked up)

B1: NCR3.18 Fab (Fab)
heavy: EVQLVESGGGLVQPGGSLRLSCAASGFNVSSSSIHWVRQAPGKGLEWVASISSSSGSTSYADSVKGRFTISADTSKNTAYLQMNSLRAEDTAVYYCARRISSYYMSYYDSFYYAGMDYWGQGTLVTVSSASTKGPSVFPLAPSSKSTSGGTAALGCLVKDYFPEPVTVSWNSGALTSGVHTFPAVLQSSGLYSLSSVVTVPSSSLGTQTYICNVNHKPSNTKVDKKVEPKSCDKTHT
light: DIQMTQSPSSLSASVGDRVTITCRASQSVSSAVAWYQQKPGKAPKLLIYSASSLYSGVPSRFSGSRSGTDFTLTISSLQPEDFATYYCQQSSSSLITFGQGTKVEIKRTVAAPSVFIFPPSDSQLKSGTASVVCLLNNFYPREAKVQWKVDNALQSGNSQESVTEQDSKDSTYSLSSTLTLSKADYEKHKVYACEVTHQGLSSPVTKSFNRGEC
notes: also called parental NCR3.18 clone; anti-NCR3 Fab #78
B2: NCR3.12 Fab (Fab)
heavy: EVQLVESGGGLVQPGGSLRLSCAASGFNISSSSIHWVRQAPGKGLEWVAYISSSSGYTSYADSVKGRFTISADTSKNTAYLQMNSLRAEDTAVYYCARYSYFYGGYFYWTSWGAFDYWGQGTLVTVSSASTKGPSVFPLAPSSKSTSGGTAALGCLVKDYFPEPVTVSWNSGALTSGVHTFPAVLQSSGLYSLSSVVTVPSSSLGTQTYICNVNHKPSNTKVDKKVEPKSCDKTHT
light: B1 light with S93Y, S94W, L95P, I96F
notes: also called anti-NCR3 Fab #72
B3: NCR3.19 Fab (Fab)
heavy: EVQLVESGGGLVQPGGSLRLSCAASGFNVYSYSIHWVRQAPGKGLEWVASIYSYYGSTSYADSVKGRFTISADTSKNTAYLQMNSLRAEDTAVYYCARWYQYYYIGTAAMDYWGQGTLVTVSSASTKGPSVFPLAPSSKSTSGGTAALGCLVKDYFPEPVTVSWNSGALTSGVHTFPAVLQSSGLYSLSSVVTVPSSSLGTQTYICNVNHKPSNTKVDKKVEPKSCDKTHT
light: B1 light with S91Q, S92W, S93Y, S94P
notes: also called anti-NCR3 Fab #79
B4: CD16.03 Fab (Fab)
heavy: EVQLVESGGGLVQPGGSLRLSCAASGFNFSSYSIHWVRQAPGKGLEWVASIYSSSGSTSYADSVKGRFTISADTSKNTAYLQMNSLRAEDTAVYYCARWSYDQYYDQHGYYFYYWGFDYWGQGTLVTVSSASTKGPSVFPLAPSSKSTSGGTAALGCLVKDYFPEPVTVSWNSGALTSGVHTFPAVLQSSGLYSLSSVVTVPSSSLGTQTYICNVNHKPSNTKVDKKVEPKSCDKTHT
light: B1 light with S93A, S94E
notes: also called anti-CD16 Fab #3

Columns and labels:
[1] = target: T1, NCR3 on cell (on-cell binding in the …); assay: on-cell binding, Fab on NCR3
[2] = target: T2, NCR3 (antigen of the ELISA in the …); assay: ELISA, Fab on NCR3
[3] = target: T8, TNFRSF9 extracellular domain fused to a generic transmembrane domain, on tetracycline-inducible FlpIn cells (UniProt Q07011 24-186); assay: flow cytometry, Fab on tetracycline-inducible cell lines over-expressing each ECD (FIG. S5)
T8 construct: extracellular domain; also called 4-1BB; not shown: transmembrane domain of platelet-derived growth factor (so in the source) with a HA tag
Method: (§1) To investigate the specificity of both activating and non-functional antibodies for their receptor targets, we developed a tetracycline-inducible cell line for each protein target—CD16, NCR1, NCR3, CD244, TNFRSF9, and TNFSF4. The ECDs of these proteins were fused to a generic transmembrane domain and were expressed upon tetracycline addition.
(§2) Titrations were performed on primary human NK cells or tetracycline induced overexpression cell lines as indicated. When tetracycline induced overexpression cell lines were used, cells were dosed with 10 μg/mL tetracycline for 2 days prior to staining. The starting concentration of each Fab or bispecific antibody was 1 μM, and serial 1:5 dilutions were performed. Antibodies were incubated with cells for 1 hr at 4° C., washed 2 times in 3% BSA in PBS pH 7.4, and stained for 30 min with an Alexafluor-647 conjugated goat anti-human IgG F(ab′)2 fragment (Jackson ImmunoResearch Laboratories) at a 1:50 dilution. After an additional 3 washes, cells were fixed and fluorescence was quantified using a CytoFLEX (Beckman Coulter). All flow cytometry data were analyzed using FlowJo software.

[4] = target: T3, TNFSF4 extracellular domain fused to a …; assay: as above
Method: as §1, §2

[5] = target: T9, NCR1 extracellular domain fused to a generic transmembrane domain, on tetracycline-inducible FlpIn cells (human, UniProt O76036 22-258); assay: as above
T9 construct: extracellular domain; HEK293 FlpIn cells, expression on tetracycline addition; also called NCR1 over expression cell line; not shown: transmembrane domain of platelet-derived growth factor (so in the source) with a HA tag
Method: as §1, §2

[6] = target: T4, CD244 extracellular domain fused to a …; assay: as above
Method: as §1, §2

[7] = target: T10, CD16 extracellular domain fused to a generic transmembrane domain, on tetracycline-inducible FlpIn cells (human, UniProt P08637 17-208); assay: as above
T10 construct: extracellular domain; HEK293 FlpIn cells, expression on tetracycline addition; also called CD16 over expression cell line; CD16A; not shown: transmembrane domain of platelet-derived growth factor (so in the source) with a HA tag
Method: as §1, §2

[8] = target: T5, NCR3 extracellular domain fused to a …; assay: flow cytometry, Fab on tetracycline-inducible cells over-expressing the ECD (FIG. S5)
Method: as §1, §2

[9] = target: T6, NCR3 extracellular domain TEV-cleavable …; assay: Fab-phage selection and Fab-phage ELISA on biotinylated ECD Fc-fusion (antigen column of Table S1)
Method: (§3) To generate antibodies against these antigens, we expressed the extracellular domains (ECDs) of these proteins as TEV-cleavable Fc-fusions and performed Fab-phage display selections to enrich for high affinity antibody binders (FIG. S1), as previously described [Hornsby, M. et al., Mol Cell Proteomics. 14(10), 2833-2847 (2015)]. After each selection, Fab-phage ELISAs were performed to determine the relative affinity and selectivity of these binders for their antigen targets (FIG. S2).
(§4) TEV-cleavable Fc-fusion proteins were expressed and biotinylated in Expi293F cells using the standard expression protocol. Media were harvested after 4 days of expression and protein was purified by protein A affinity chromatography. Phage selections were performed according to previously established protocols1 with the Fab-phage Library E2. Non-specific binders were depleted from the library by incubating the phage pool with Fc-domain immobilized on streptavidin beads. Fab phage were selected using biotinylated Fc-fusions that were captured on streptavidin-coated magnetic beads, and were released through TEV elution. Each selection consists of four rounds. With each round, decreasing amounts of Fc-fusions (1 μM, 100 nM, 10 nM, and […]) were used. ELISAs were performed for 96 individual Fab-phage clones from the third or fourth rounds of selection to evaluate for affinity and selectivity.
(§5) ELISAs were performed as previously described1. In brief, Maxisorp plates were coated with 10 μg/mL of Neutravidin overnight at 4° C. Biotinylated target antigen (20 nM) was captured on the Neutravidin coated plates for 30 min, and then exposed to a 1:5 dilution of phage supernatants for 30 min. Bound phage were detected via a horseradish-peroxidase-conjugated anti-phage monoclonal antibody (GE Lifesciences).

[10] = target: T7, NCR3 as expressed on NK cells; assay: flow cytometry, Fab titration on peripheral blood NK cells (FIG. S6)
Method: (§6) To evaluate the affinity of the selected antibodies for NK cells, we titrated the nine Fab clones on peripheral blood NK cells.
as §2

[11] = target: T10, CD16 extracellular domain fused to a …; assay: flow cytometry, Fab on tetracycline-inducible cells over-expressing the ECD (FIG. S5)
Method: as §1, §2

[12] = target: T11, CD16 extracellular domain TEV-cleavable Fc-fusion, biotinylated (human, UniProt P08637 17-208, biotinylated (site not stated)); assay: Fab-phage selection and Fab-phage ELISA on biotinylated ECD Fc-fusion (antigen column of Table S1)
T11 construct: extracellular domain; Antigen of the phage selections and Fab-phage ELISAs; also called CD16A; not shown: TEV cleavage site and Fc domain
Method: as §3, §4, §5

[13] = target: T5, NCR3 extracellular domain fused to a …; assay: flow cytometry, Fab on tetracycline-inducible cell lines over-expressing each ECD (FIG. S5)
Method: as §1, §2

[14] = target: T12, CD16 as expressed on NK cells (human, UniProt P08637 17-254); assay: flow cytometry, Fab titration on peripheral blood NK cells (FIG. S6)
T12 construct: whole, on cells; Primary human peripheral blood NK cells; PBMCs in the bispecific cytotoxicity assay; also called peripheral blood NK cells; PBMCs
Method: as §6, §2

T9 sequence (O76036 22-258): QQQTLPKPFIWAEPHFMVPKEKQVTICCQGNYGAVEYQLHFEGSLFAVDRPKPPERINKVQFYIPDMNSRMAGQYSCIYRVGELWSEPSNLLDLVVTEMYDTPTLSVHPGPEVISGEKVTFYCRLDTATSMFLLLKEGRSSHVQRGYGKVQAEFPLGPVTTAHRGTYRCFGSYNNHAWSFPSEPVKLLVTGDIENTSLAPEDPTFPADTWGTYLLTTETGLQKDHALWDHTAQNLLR
T10 sequence (P08637 17-208): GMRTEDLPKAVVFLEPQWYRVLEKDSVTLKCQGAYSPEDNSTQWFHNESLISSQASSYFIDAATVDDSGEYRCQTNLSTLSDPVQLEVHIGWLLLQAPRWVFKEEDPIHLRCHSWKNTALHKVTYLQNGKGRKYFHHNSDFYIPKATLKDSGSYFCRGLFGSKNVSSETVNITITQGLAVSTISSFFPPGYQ
T12 sequence (P08637 17-254): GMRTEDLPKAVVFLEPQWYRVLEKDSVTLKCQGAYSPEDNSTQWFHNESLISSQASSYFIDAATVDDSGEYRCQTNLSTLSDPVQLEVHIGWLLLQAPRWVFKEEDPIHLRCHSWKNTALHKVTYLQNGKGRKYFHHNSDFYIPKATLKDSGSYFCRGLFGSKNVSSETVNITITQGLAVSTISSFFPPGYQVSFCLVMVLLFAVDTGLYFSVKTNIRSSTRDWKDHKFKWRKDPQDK
T11 sequence (P08637 17-208): as the sequence (P08637 17-208) above

| Binder | EC50 [1] [nM] | EC50 [2] [nM] | binding result [3] | binding result [4] | binding result [5] | binding result [6] | binding result [7] | binding result [8] | binding result [9] | binding result [10] | binding result [11] | binding result [12] | binding result [13] | binding result [14] |
| --- | --- | --- | --- | --- | --- | --- | --- | --- | --- | --- | --- | --- | --- | --- |
| B1 | 2.27 | 1.63 | no binding | no binding | no binding | no binding | no binding | – | – | – | – | – | – | – |
| B2 | – | – | no binding | no binding | no binding | no binding | no binding | binds | binds | binds | – | – | – | – |
| B3 | – | – | no binding | no binding | no binding | no binding | no binding | binds | binds | binds | – | – | – | – |
| B4 | – | – | no binding | no binding | no binding | no binding | – | – | – | – | binds | binds | no binding | binds |
